This series has as its target Nb55 (Lama glama (llama immune VHH library), UniProt PDB:9GXH_1). Kind of series: ITC. In general terms: ITC needs no label: the signal is the heat of the interaction.

GGTGGGTGTGGTTGG (structured_DNA) [TBA T4G]: the binding result was “no binding”. The result for GGGCGCGGGAGGAATTGGGCGGG (structured_DNA) [Bcl2] reads “no binding”. TGAGGGTGGGTAGGGTGGGTAA (structured_DNA) [c-Myc]: the binding result is reported as “no binding”. GAAAAACCCCCTTTTTC (structured_DNA) [B-DNA hairpin]: the binding result is reported as “no binding”.

Turning to GACCCCGCCCCCGGCCCGCCCCCG (structured_DNA) [VEGF], the binding result is listed as “no binding”.

Source of the values: publication PMC12117401.
